Target: mLANA DBD (Murine gammaherpesvirus 68 (MHV-68), UniProt O41974 124-314)
Experiment: SAXS; linear octamer model, no DNA bending
Conditions: protein: recombinant; tags: GST-6xHis tag (pET49b) removed by 3C protease; chain copies: 2

B1: mLBS1-2 (dsDNA)
DNA 1: GCCATGCGCCCGCGCCTGGGGCGCCACGCGGCGCGCCCTGGAGACCCGGG
DNA 2: CCCGGGTCTCCAGGGCGCGCCGCGTGGCGCCCCAGGCGCGGGCGCATGGC
B1: binds.

Source: article PMC4787769
